Five molecules from patent US20250171532A1 (NB HEALTH LABORATORY, published 2025) can be followed below.

The target in assay [1] is T1, mouse LPA1 (mouse, UniProt P61793 1-364).
T1 construct: Untagged, on mouse LPA1-stably expressing CHO cells (Flp-In-CHO); also called mLPA1
Kind of assay: flow cytometry, mouse LPA1-stably expressing CHO cells, median fluorescence intensity. The source says: (§1) The human LPA1-stably expressing CHO cell and the mouse LPA1-stably expressing CHO cell were washed with PBS, then detached from the cell culture dishes by an enzyme-free cell dissociation buffer (Thermo Fisher Scientific, Inc.), then washed with PBS, and then collected by centrifugation. The human LPA1-stably expressing CHO cell and the mouse LPA1-stably expressing CHO cell were suspended at 1×10⁷ cells/mL in Fc Block (Sci-Tech Biosciences, Inc.) diluted by 500 times in FACS buffer, and then allowed to stand at 4° C. for 30 minutes to block the cells. The cells were collected by centrifugation and suspended in FACS buffer at 4×10⁶ cells/mL, and this suspension was dispensed into a V-bottom 96-well plate (Thermo Fisher Scientific, Inc.) at 25 μL (1×10⁵ cells)/well. As primary antibodies, the eleven types of LPA1 antibodies produced and purified by the method described above and a mouse isotype control antibody (Fujifilm Wako Pure Chemicals Corporation) were diluted stepwise, which was added to each well at 25 μL/well, and allowed to stand at 4° C. for 1 hour. The cells were collected by centrifugation and washed with 120 μL of FACS buffer. This washing operation was repeated twice. To the cell sediment, 25 μL each of Goat Anti-Mouse IgG H&L (DyLight 650) (Abcam) that was a secondary antibody diluted by 500 times in FACS buffer was dispensed, then suspended, and then allowed to stand at 4° C. for 1 hour. The cells were washed twice, then suspended in 50 μL of FACS buffer, and the binding of antibodies to the cells was measured using a flow cytometer (Agilent Novocyte).
(§2) A graph was created, in which a concentration of the antibody was plotted on the […] axis, and a median fluorescence intensity of the flow cytometer histogram was plotted on the horizontal axis. All of the eleven antibodies were confirmed to dose-dependently bind to the human LPA1-stably expressing CHO cell and the mouse LPA1-stably expressing CHO cell. The results of the binding of each antibody to the human LPA1-stably expressing CHO cell are presented in FIG. 2A to FIG. 2K, and the results of the binding of each antibody to the mouse LPA1-stably expressing CHO cell are presented in FIG. 3A to FIG. 3K.
A general note: Flow cytometry measures light scatter and fluorescence of single cells or particles in a stream.

Assay [2] deals with T2, human LPA1 (human, UniProt Q92633 1-364).
T2 construct: Untagged, on human LPA1-stably expressing CHO cells (CHO-K1); also the endogenous receptor on the human lung fibroblast line printed as IMIR-90; also called human lysophosphatidic acid receptor 1; hLPA1
T2 sequence (Q92633 whole entry): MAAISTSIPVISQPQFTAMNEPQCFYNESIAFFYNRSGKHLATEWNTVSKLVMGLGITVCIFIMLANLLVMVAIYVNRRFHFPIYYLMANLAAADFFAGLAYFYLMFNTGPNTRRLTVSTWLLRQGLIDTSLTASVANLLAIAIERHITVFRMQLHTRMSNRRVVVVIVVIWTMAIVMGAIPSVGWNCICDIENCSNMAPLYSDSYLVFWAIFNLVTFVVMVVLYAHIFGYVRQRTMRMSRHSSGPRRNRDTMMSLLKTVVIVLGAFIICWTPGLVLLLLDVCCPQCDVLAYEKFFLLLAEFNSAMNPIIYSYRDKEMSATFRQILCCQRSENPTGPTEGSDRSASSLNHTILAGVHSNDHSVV
Put plainly: flow cytometry, human LPA1-stably expressing CHO cells, median fluorescence intensity.
From the text: as §1, §2

The target of assay [3] is T3, mouse LPA3 with FLAG tag (mouse LPA3 gene transfected cell) (mouse, UniProt Q9EQ31 1-354).
T3 construct: not shown: FLAG tag added at the 5' terminal of the gene
T3 sequence: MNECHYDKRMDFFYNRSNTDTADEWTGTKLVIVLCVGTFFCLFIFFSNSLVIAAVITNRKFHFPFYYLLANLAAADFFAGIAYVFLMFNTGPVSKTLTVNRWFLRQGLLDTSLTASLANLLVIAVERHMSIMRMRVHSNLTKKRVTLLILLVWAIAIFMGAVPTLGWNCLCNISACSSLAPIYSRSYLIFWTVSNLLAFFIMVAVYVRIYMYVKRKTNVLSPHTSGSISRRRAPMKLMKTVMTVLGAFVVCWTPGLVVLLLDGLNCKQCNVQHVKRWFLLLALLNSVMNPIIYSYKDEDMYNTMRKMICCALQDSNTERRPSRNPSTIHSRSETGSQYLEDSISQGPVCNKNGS
Put plainly: flow cytometry, transfected HEK293FT cells, histogram shift. The method, then: (§3) BTEK293FT cell was transfected with 10 μg of an expression vector carrying each synthetic gene using Lipofectamine 2000, to prepare a human LPA1 gene transfected cell, a mouse LPA1 gene transfected cell, a human LPA2 gene transfected cell, a mouse LPA2 gene transfected cell, a human LPA3 gene transfected cell, and a mouse LPA3 gene transfected cell.
(§4) The next day, the cells were washed with PBS, then detached from the cell culture dishes by an enzyme-free cell dissociation buffer (Thermo Fisher Scientific, Inc.), then washed with PBS, and then collected by centrifugation. Goat serum (Thermo Fisher Scientific, Inc.) was diluted by 2 times in FACS buffer (PBS containing 1% o of FBS), into which the cells were suspended at 1×10⁷ cells/mL. This suspension was allowed to stand at 4° C. for 30 minutes to block the cells. The cells were collected by centrifugation and suspended in FACS buffer at 4×10⁶ cells/mL, and this suspension was dispensed into a V-bottom 96-well plate (Thermo Fisher Scientific, Inc.) at 25 μL (1×10⁵ cells)/well.
(§5) The cells were collected by centrifugation and washed with 120 μL of FACS buffer. This washing operation was repeated twice. To the cell sediment, 25 μL each of Goat Anti-Mouse IgG H&L (DyLight 650) (Abcam) that was a secondary antibody diluted by 500 times in FACS buffer was dispensed, then suspended, and then allowed to stand at 4° C. for 1 hour. The cells were washed twice, then suspended in 50 μL of FACS buffer, and the whole content thereof was transferred to a V-bottom 96-well plate (Greiner), to measure the binding of antibodies to the cells using a flow cytometer (Agilent Novocyte).

In assay [4] the target is T4, human LPA2 with FLAG tag (human LPA2 gene transfected cell) (human, UniProt Q9HBW0 1-348).
T4 construct: also called EDG4; not shown: FLAG tag added at the 5' terminal of the gene
T4 sequence (Q9HBW0 other isoform, or with tags, fused parts or gaps): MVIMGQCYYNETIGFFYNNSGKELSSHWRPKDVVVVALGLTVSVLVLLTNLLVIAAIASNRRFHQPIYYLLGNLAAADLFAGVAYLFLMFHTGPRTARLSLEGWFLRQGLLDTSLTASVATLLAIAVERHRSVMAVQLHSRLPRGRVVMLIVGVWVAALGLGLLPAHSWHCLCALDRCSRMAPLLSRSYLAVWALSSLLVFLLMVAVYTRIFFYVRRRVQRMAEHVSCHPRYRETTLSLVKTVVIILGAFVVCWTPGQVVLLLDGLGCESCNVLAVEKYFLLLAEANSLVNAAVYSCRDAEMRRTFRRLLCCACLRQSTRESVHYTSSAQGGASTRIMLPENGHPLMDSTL
The assay is described as above. As for the experimental part: as §3, §4, §5

Assay [5] concerns the target T5, mouse LPA2 with FLAG tag (mouse LPA2 gene transfected cell) (mouse, UniProt Q9JL06 1-348).
T5 construct: not shown: FLAG tag added at the 5' terminal of the gene
The description is as above. The method, then:
as §3, §4, §5

The target in assay [6] is T6, human LPA3 with FLAG tag (human LPA3 gene transfected cell) (human, UniProt Q9UBY5 1-353).
T6 construct: also called EDG7; not shown: FLAG tag added at the 5' terminal of the gene
T6 sequence: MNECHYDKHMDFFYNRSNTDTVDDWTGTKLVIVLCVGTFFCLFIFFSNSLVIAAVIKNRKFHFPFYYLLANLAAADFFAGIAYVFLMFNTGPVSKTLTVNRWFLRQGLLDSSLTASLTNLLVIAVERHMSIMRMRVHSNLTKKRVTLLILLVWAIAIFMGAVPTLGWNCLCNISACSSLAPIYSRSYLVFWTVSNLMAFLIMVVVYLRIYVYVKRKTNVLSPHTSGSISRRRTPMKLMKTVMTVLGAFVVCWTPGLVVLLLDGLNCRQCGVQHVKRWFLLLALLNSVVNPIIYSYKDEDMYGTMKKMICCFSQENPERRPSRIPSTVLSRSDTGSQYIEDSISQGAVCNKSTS
The assay is described as above. As for the experimental part: as §3, §4, §5

Assay [7] deals with T1, mouse LPA1. Kind of assay: cell-based or functional assay.
The target of assay [8] is T2, human LPA1. Kind of assay: cell-based or functional assay.
Assay [9] concerns the target T2, human LPA1. Kind of assay: cell-based or functional assay. This is another data set of the same source.

T1 sequence (P61793 whole entry): as the sequence (Q92633 whole entry) above, with I4A, I8S, P22Q, H40Y, I61V, E193D, N194H, I269V, S331N, T335N counted along it
T5 sequence (Q9JL06 whole entry): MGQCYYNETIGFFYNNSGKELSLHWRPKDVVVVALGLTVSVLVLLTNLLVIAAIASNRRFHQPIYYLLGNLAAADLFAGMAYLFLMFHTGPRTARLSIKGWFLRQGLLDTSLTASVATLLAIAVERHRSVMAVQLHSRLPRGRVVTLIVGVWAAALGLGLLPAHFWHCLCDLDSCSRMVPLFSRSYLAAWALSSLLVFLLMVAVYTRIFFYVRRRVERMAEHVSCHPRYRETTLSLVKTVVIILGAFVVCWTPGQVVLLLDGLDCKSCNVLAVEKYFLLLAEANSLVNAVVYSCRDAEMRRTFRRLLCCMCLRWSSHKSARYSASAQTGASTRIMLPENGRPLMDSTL

B1: 210309-1-C (antibody, mouse IgG1, V domains shown)
VH: QVHLQQSGAELARPGASVKLSCKASGYSFTAYGISWVQQRTGQGLEWIGEIYPRSGNTYYSEKFKGKATLTADKSSSTAYMELRSLTSEDSAVYFCARESLLKRLGWYFDVWGTGTTVTVSS
VL: DIQMTQSPASLSASVGETVTITCRASQNIYSFLAWYQQKQGNSPQLLVYNAKTLAEGVPSRFSGSGSGTQFSLKINSLQPEDFGSYYCQHHYGPPLTFGVGTKLELK
notes: Mouse monoclonal from human LPA1 immunization
For B1, the EC50 (commonly the midpoint of the concentration-response curve) in the assay with mouse LPA1 [1] came to 1.8 nM; with human LPA1 [2] it was 1.7 nM. Besides, the binding result in assay [3], in assay [4], in assay [5] and in assay [6] was “no binding (tested: 25 g/mL (so in the source))” each time. The figures for the “Intracellular cAMP signaling inhibition (Inhibition rate %/100 nM)” value with mouse LPA1 [7] and with human LPA1 [8] were 20% and 47%, respectively. The “Intracellular cAMP signaling inhibition IC50” value with human LPA1 [9] worked out at 25.1 nM.

B2: 210420-1-H (antibody, mouse IgG1, V domains shown)
VH: QFQLQQSGAELARPGASVKLSCKASGYTFASFGISWVKQRTGQGLEYIGEIYPRSGTTYFNEKFRGKATLTADKSSSTAYMELRSLTSEDSAVYFCAREGVRRYAMDYWGQGTSVTVSS
VL: DIQVTQSPASLSASVGETVTITCRASGNIYSFLAWYQQKQGKSPQLLVYNAKTLAEGVPSRFSGSGSGTQFSLKISSLQPEDFGSYYCQHHYGIPLTFGGGTKLDLK
notes: Mouse monoclonal from mouse LPA1 immunization
As to B2, the 50% effective concentration (EC50) with mouse LPA1 [1] was 1.6 nM; with human LPA1 [2], 2.5 nM. For the same molecule, the binding result in [3], in [4], in assay [5] and in assay [6] was “no binding (tested: 25 g/mL (so in the source))” throughout. Moreover, the “Intracellular cAMP signaling inhibition (Inhibition rate %/100 nM)” value with mouse LPA1 [7] was found to be 37%; with human LPA1 [8], 22%. Moreover, the “Intracellular cAMP signaling inhibition IC50” value in the assay with human LPA1 [9] is 49.1 nM.

B3: 210309-2-A (antibody, mouse IgG1, V domains shown)
VH: QVQLQQSGAELARPGASVKLSCKASGYTFTSYGISWVKQRTGQGLEWIGEIYPRSGNTYYNEKFKGRATLTADKSSSTAYMELRSLTSEDSAVYFCARESILLRLGWYFDVWGTGTTVTVSS
VL: DIQMTQSPASLSASVGGTVTITCRASENIYRFLAWYQQKQGKSPQLLVYNAKTLAEGVPSRFSGSGSGTQFSLKINSLQPEDFGIYYCQHHYGPPLTFGAGTKLELK
notes: as for B1
In the case of B3, the EC50 with mouse LPA1 [1] worked out at 2.1 nM; with human LPA1 [2], 1.4 nM. The binding result in assay [3], in [4], in assay [5] and in assay [6] was “no binding (tested: 25 g/mL (so in the source))” throughout. Moreover, the “Intracellular cAMP signaling inhibition (Inhibition rate %/100 nM)” value in the assay with mouse LPA1 [7] and with human LPA1 [8] was 32% in each case. Besides, the “Intracellular cAMP signaling inhibition IC50” value with human LPA1 [9] worked out at 21.8 nM.

B4: 210310-1-D (antibody, mouse IgG1, V domains shown)
VH: QVQVQQSGAELARPGASVRLSCKASGYTFTSFGVNWVKQRTGQGLEWIGQIYPRTGTTYHNERFKGKATLTTDKSSSTAYMELRSLTSEDSAVYFCAREGDRYSLAYWGQGTLVTVSA
VL: DIQMTQSPASLSASVGETVTITCRASENIYRFLAWYQQKQGKSPQLLVYNAKTLVEGVPSRFSGSGSGTQFSLKINNLQPEDFGSYYCQHHYGIPLTFGAGTKLELK
notes: as for B1
B4: the figures for the EC50 with mouse LPA1 [1] and in the assay with human LPA1 [2] were 2.1 nM and 2.7 nM, respectively. The binding result in assay [3], in assay [4], in assay [5] and in assay [6] was “no binding (tested: 25 g/mL (so in the source))” each time. For the same molecule, the “Intracellular cAMP signaling inhibition (Inhibition rate %/100 nM)” value with mouse LPA1 [7] was found to be 25%; in the assay with human LPA1 [8] it was 22%. Besides, in the assay with human LPA1 [9], the “Intracellular cAMP signaling inhibition IC50” value was 60.5 nM.

B5: 211222-1-A (antibody, mouse IgG1, V domains shown)
VH: QVQVHQSGAELARPGASVRLSCKASGYTFTSFGVNWVKQRTGQGLEWIGQIYPRSGTTYHNERFKGKATLTADKSSSTAYMELRSLTSEDSAVYFCAREGDRYSLAYWGQGTLVTVSA
VL: DIQMTQSPASLSASVGETVTITCRASENIYRFLAWYQQKQGKSPQLLVSNAKTLAEGVPSRFSGSGSGTQFSLKINYLQPEDFGNYYCQHHYGIPLTFGAGTKLELK
notes: as for B1
Consider B5, for which the concentration for a half-maximal effect (EC50) is 2 nM with mouse LPA1 [1] and 2.3 nM with human LPA1 [2]. The binding result in assay [3], in assay [4], in [5] and in assay [6] was “no binding (tested: 25 g/mL (so in the source))” each time. Moreover, the figures for the “Intracellular cAMP signaling inhibition (Inhibition rate %/100 nM)” value with mouse LPA1 [7] and with human LPA1 [8] were 30% and 1%, respectively. Further, in the assay with human LPA1 [9], the “Intracellular cAMP signaling inhibition IC50” value is 69.9 nM.
